System: OC[C@H]1O[C@@H](O[C@H]2[C@H](O)[C@@H](O)C(O)O[C@@H]2CO)[C@H](O)[C@@H](O)[C@H]1O
Assay: Steady-state kinetics, DCIP-based enzymatic activity assay
Type: biochemical, Neurospora crassa
Settings: other: apparent constant, 100 mM McIlvaine buffer pH 5.5, DCIP as artificial electron acceptor, 30°C
Method: Enzyme activity was assayed at 30°C using the DCIP (Karapetyan et al., 2005 Journal of Biotechnology 121: 34-48) as electron acceptor. Stock solutions of carbohydrates used for kinetic measurements were prepared in the respective buffer and allowed to stand overnight for mutarotation, while stock solutions of electron acceptors were prepared in water and immediately used. The reaction stoichiometry is 1 for the two-electron acceptor DCIP (1 mole of DCIP reduced per mole of carbohydrate oxidized. Kinetic constants were calculated by fitting the observed data to the Henri-Michaelis-Menten equation or to the adapted model for substrate inhibition using nonlinear least-squares regression and the program SigmaPlot (Systat Software, San Jose, CF, USA). The protein concentration was determined with the Bradford assay.
CDH from N. crassa oxidises glucose and galactose (Harreither et al., 2007), which has negative side effects on the lactose detection accuracy if glucose and galactose are present. […] The enzyme variant N722Q was heterologously produced in P. pastoris according to the explained routines and compared to the recombinant wild-type CDH from N. crassa. […] To investigate the effect of the mutation in the N. crassa variant a full characterization of steady-state constants was performed (Tables 2 and 3). Table 2: Apparent kinetic constants of wtCDH for indicated electron donors in 100 mM McIlvaine buffer at pH 5.5 using DCIP as artificial electron acceptor
Table 3: Apparent kinetic constants of N722Q N. crassa sensor for indicated electron donors in 100 mM McIlvaine buffer at pH 5.5 using DCIP as artificial electron acceptor

Neurospora crassa cellobiose dehydrogenase (CDH) variant N722Q (N722 of SEQ ID NO: 4 substituted by glutamine) (Neurospora crassa OR74A; N722Q)
Km: 2.18 ± 0.28 > 10 M^b mM
kcat: 77.92 s⁻¹
kcat/Km: 35740 M⁻¹ s⁻¹

From patent EP3408384B1, “MUTATED CELLOBIOSE DEHYDROGENASE WITH MODIFIED SUBSTRATE SPECIFICITY” (priority 2016, dated 2017)
